Test results from publication PMC7895871 (Protein & Cell, 2020).

Target: the molecule itself
Experiment: cryo-EM structure; human MCU-EMRE-MICU1-MICU2 supercomplex co-expressed in HEK 293F, pulled down by C-terminally Strep-tagged EMRE; Titan Krios, K2; overall map 3.3–3.7 Å

B1: MCU (mitochondrial calcium uniporter), subunit of the human MCU-EMRE-MICU1-MICU2 supercomplex (MEMMS) (natural protein)
chain: DDVTVVYQNGLPVISVRLPSRRERCQFTLKPISDSVGVFLRQLQEEDRGIDRVAIYSPDGVRVAASTGIDLLLLDDFKLVINDLTYHVRPPKRDLLSHENAATLNDVKTLVQQLYTTLCIEQHQLNKERELIERLEDLKEQLAPLEKVRIEISRKAEKRTTLVLWGGLAYMATQFGILARLTWWEYSWDIMEPVTYFITYGSAMAMYAYFVMTRQEYVYPEARDRQYLLFFHKGAKKSRFDLEKYNQLKDAIAQAEMDLKRLRDPLQVHLPLRQIG
notes: MCU, human; pore-forming subunit with NTD, CCD and TMD; Four MCU subunits form one channel (tetramer); the supercomplex holds two such tetramers joined at the NTDs; Construct limits and any tags are in the supplementary Methods; source: HEK 293F cells transfected by BacMam viruses, co-expressed; complex pulled down by the C-terminally Strep-tagged EMRE
- stoichiometry N: 4
